Data taken from patent US20080045697A1.

How the values were obtained:
complement C3b [1] = target: complement C3b (UniProt P01024); assay: cell-based or functional assay
complement C3b [2] = target: complement C3b (UniProt P01024); assay: competition ELISA: CRIg protein against CRIg-LFH on plate-coated C3b, anti-FLAG detection

“CRIg (soluble, construct not stated) (from UniProt Q9Y279 20-189) (receptor)” showed an inhibition of C5b-9 deposition through the alternative pathway (LPS-coated plate, C1q deficient serum) (complement C3b [1]) of 1.49 µM.
“CRIg mutant A (E85A M86A) (from UniProt Q9Y279 20-399) (receptor)” was tested, and the fold increase of IC50 compared to wt CRIg (complement C3b [2]) was greater than 10000 fold.
“CRIg mutant B (H57A Q59A) (from UniProt Q9Y279 20-399) (receptor)” gave a fold increase of IC50 compared to wt CRIg (complement C3b [2]) of 100 fold.
“CRIg-Fc (from UniProt Q9Y279 20-283) (Fc fusion)” gave an inhibition of hemolysis of rabbit erythrocytes in C1q deficient serum (alternative pathway) (complement C3b [1]) of 127 nM.
